Results as given in patent publication US10947270B2, “Targeted prodrug cytosine deaminase fusion carrier and application thereof” (National Yang-Ming University, priority 2015, dated 2021).
“And” between values parts separate entries of the source, which are not always exact repeats. Identical values can stand only once. Like-named read-outs stand apart in the source and are kept apart here.

How the values were obtained:
[1] = type: physicochemical
Procedure: The radiochemical purity of ^111In-DTPA-yCD and ^111In-DTPA-RGD4C-yCD are greater than 95% after marking and purification. Both are stored in HEPES buffer liquid (4° C.) for 48 hours, and the radiochemical purity is still higher than 85% (see FIG. 26). Both are placed in fetal bovine serum (37° C.) to simulate their stability in vivo. After 48 hours, the radiochemical purity of both is about 80%. It is shown that radioactive metal indium-111 is stably chelated on DTPA.

[2] = parameters: species or system nude mice; conditions: mouse, in vivo
Procedure: The arrow is marked as a tumor.
In in-vitro cell experiment, the binding ability of ^111In-DTPA-RGD4C-yCD and the integrin αvβ3 receptor on the cell membrane has been verified. In order to know whether the drug can show its target effect in vivo, integrin αvβ3 is seeded subcutaneously in the right side of nude mice. After the high-expression U87MG tumor cells are grown to 100 mm^3, 60-70 μCi (3-3.5 μg) of ^111In-DTPA-yCD and ^111In-DTPA-RGD4C-yCD are injected directly into the tumor, the images are collected by microSPECT/CT after 1, 4, 24, 48 hours. It can be seen from the image (see FIG. 31) that the drug retention in the ^111In-DTPA-RGD4C-yCD group (orange arrow) is better than that in the ^111In-DTPA-yCD, and the target ligand RGD4C is missing. ^111In-DTPA-yCD enters the systemic blood circulation system within 1 hour and is metabolized by normal organs. From FIG. 31, it can be seen that the kidney is the main metabolic organ of these two drugs. […] After 24-48 hours, the amount of accumulation in the tumor is running out. On the contrary, ^111In-DTPA-RGD4C-yCD is bound with integrin αvβ3 on tumor cells, then the ratio of drug entering the systemic blood circulation is reduced, and the metabolic rate is slow.

[3] = parameters: species or system nude mice; conditions: mouse, in vivo; remark: listed apart in the source
Procedure: ES-2-luc tumor nude mice is intraperitoneally injected with 50 μCi (2.5 μg) ^111In-DTPA-yCD and ^111In-DTPA-RGD4C-yCD for 1, 4 and 24 hours, then organs are collected and their radioactivity is measured to obtain biodistribution, as shown in Table 19 and Table 20. […] In addition to the part accumulated in the tumor, another part of the drug is absorbed back into the blood circulation system by the peritoneal blood vessels. […] The pancreatic radioactivity of the two drugs is observed after 1 hour of injection. The pancreatic radioactivity of ^111In-DTPA-RGD4C-yCD (8.06±0.88% ID/g) is higher than that of ^111In-DTPA-yCD (3.91±0.36% ID/g), it is suspected that tumor cells invade the pancreas.

[4] = Enzyme kinetic analysis of yCD series proteins after DTPA modification, marking and purification; type: biochemical; conditions: for Vmax compared with the original enzyme activity: after EDTA with a 10-fold molar excess of protein
From the text: The enzyme activity of yCD is not affected by DTPA modification.
FIGS. 24A-24B show the kinetic curve of yCD series protein modified, labeled and purified by DTPA. The enzyme activity of the two proteins is not affected by the labeling conditions. After adding EDTA with a 10-fold molar excess of protein, and it is competitively purified, In-DTPA-yCD compared with the original enzyme activity.
The curve and enzyme kinetic parameters (see FIG. 18 and Table 13) are fitted by the […] protein enzyme kinetics through the Michaelis-Menten formula in the Graph prism program.
Before the protein is labeled by radioisotope, its enzyme function must be determined, and based on the original enzyme function, it should be examined whether it will be affected during the radioactive marking process. The curve and enzyme kinetic parameters of protein are fitted by the Michaelis-Menten formula in the Graph prism program. […] Whether the yCD and RGD4C-yCD protein detected by the same method will be affected under the conditions of DTPA modification, marking and purification. […] After the completion of the radioactive metal mark, it is necessary to add EDTA of 10-fold protein Moire number and react at room temperature for 1 hour to compete for the radioactive metal isotope indium which is not chelated on DTPA. The EDTA in this step also has the chance to chelate the metal zinc ion of the enzyme catalytic center, the enzyme activity is impaired, so it is necessary to analyze the enzyme activity of In-DTPA-yCD and In-RGD4C-yCD protein after competition with EDTA. After the EDTA competitive reaction is completed, the enzyme kinetics analysis can be carried out by reducing the EDTA molecule weight through membrane centrifugation method and by replacing the solution with pH 7.0. […] The curve and receptor binding ability parameters of the protein and integrin αvβ3 are fitted under the conditions of DTPA modification, marking and purification by the One site-Specific binding formula in the Graph prism program (see FIG. 25 and Table 18). […] Although the two proteins after marking are greatly affected by the enzyme activity, they still have good binding ability to the integrin αvβ3 receptor. In consideration of the indispensability of EDTA for radiochemical purity, it retains a considerable amount of enzyme activity. In addition, the effect of integrin αvβ3 receptor binding ability is minimal, in combination of cell uptake, biodistribution and angiography experiment, focusing on the evaluation of target results, and the subsequent biological experiment is still carried out by the marking and purification conditions.

[5] = after 10x EDTA competition and purification

B1: ^111In-DTPA-yCD: indium-111 labeled DTPA-yCD protein (conjugate, UniProt Q12178 1-158, looked up)
Cytosine deaminase: MVTGGMASKWDQKGMDIAYEEAALGYKEGGVPIGGCLINNKDGSVLGRGHNMRFQKGSATLHGEISTLENCGRLEGKVYKDTTLYTTLSPCDMCTGAIIMYGIPRCVVGENVNFKSKGEKYLQTRGHEVVVVDDERCKKIMKQFIDERPQDWFEDIGE
modifications: 111In-DTPA label
notes: indium-111 labeled DTPA-yCD protein
In the case of B1, the “radiochemical purity after incubation” value [1] is reported as “about 80%”, the “time to enter the systemic blood circulation system” value [2] is reported as ≤ 1 h and the “radioactivity in the peritoneal cavity reduced to (fraction of 1 hour value)” value [3] is reported as “½”.

B2: DTPA-RGD4C-yCD: RGD4C-yCD protein modified by the metal chelating agent DTPA (conjugate)
chain: MACDCRGDCFCVTGGMASKWDQKGMDIAYEEAALGYKEGGVPIGGCLINNKDGSVLGRGHNMRFQKGSATLHGEISTLENCGRLEGKVYKDTTLYTTLSPCDMCTGAIIMYGIPRCVVGENVNFKSKGEKYLQTRGHEVVVVDDERCKKIMKQFIDERPQDWFEDIGELEHHHHHH
With B2 the Km [4] was 1160 ± 108 µM, the Vmax [4] was 224.6 ± 8.408 µM/min and the “Vmax compared with the original protein” value ([4]; after DTPA modification) was 80%. For the same molecule, the Vmax ([4]; listed as DTPA- RGD4C-yCD) was 224.6 ± 8.408 µM/min.

B3: In-DTPA-RGD4C-yCD: DTPA-RGD4C-yCD treated with the stable isotope of indium under simulated marking conditions (conjugate)
chain: B2 chain
For B3, the Km [4] was 956 ± 76.8 µM, the Vmax [4] was 226.8 ± 6.918 µM/min and the Km [4, 5] was 1630 ± 273 µM. For the same molecule, the Vmax [4, 5] was 117.7 ± 9.510 µM/min and the “Vmax compared with the original enzyme activity” value [4] was 40%.

B4: DTPA-yCD: yCD protein modified by the metal chelating agent DTPA (conjugate)
chain: MVVTGGMASKWDQKGMDIAYEEAALGYKEGGVPIGGCLINNKDGSVLGRGHNMRFQKGSATLHGEISTLENCGRLEGKVYKDTTLYTTLSPCDMCTGAIIMYGIPRCVVGENVNFKSKGEKYLQTRGHEVVVVDDERCKKIMKQFIDERPQDWFEDIGELEHHHHHH
With B4 the Km [4] was 840 µM and 1040 µM and the Vmax [4] was 286.8 ± 10.80 µM/min.

B5: In-DTPA-yCD: DTPA-yCD treated with the stable isotope of indium under simulated marking conditions (conjugate)
chain: B4 chain
Work on B5 yielded a Km [4] of 1120 ± 58.7 µM, a Vmax [4] of 270.0 ± 6.165 µM/min and a Km [4, 5] of 1930 ± 286 µM. For the same molecule, the Vmax [4, 5] was 125.2 ± 9.652 µM/min and the “Vmax compared with the original enzyme activity” value [4] was 47%.
